The values below are quoted from earlier work in PMC8002405.

The target in the data set is Human neonatal Fc receptor (hFcRn) (UniProt P55899+P61769). The experiment in a line: microscale thermophoresis (MST). To be noted: pH 5.5. (In general: In MST a laser heats a spot of the sample, and binding alters the fluorescence response.)

The term KD denotes a measure of binding affinity in units of concentration. Take Human IgG1 (wild type): the KD is 900 nM.
